IntAct's records for PubMed 21516123

B1: Peroxiredoxin-1 (Mus musculus), P35700 (parent)
chain: MSSGNAKIGYPAPNFKATAVMPDGQFKDISLSEYKGKYVVFFFYPLDFTFVCPTEIIAFSDRADEFKKLNCQVIGASVDSHFCHLAWINTPKKQGGLGPMNIPLISDPKRTIAQDYGVLKADEGISFRGLFIIDDKGILRQITINDLPVGRSVDEIIRLVQAFQFTDKHGEVCPAGWKPGSDTIKPDVNKSKEYFSKQK
partner: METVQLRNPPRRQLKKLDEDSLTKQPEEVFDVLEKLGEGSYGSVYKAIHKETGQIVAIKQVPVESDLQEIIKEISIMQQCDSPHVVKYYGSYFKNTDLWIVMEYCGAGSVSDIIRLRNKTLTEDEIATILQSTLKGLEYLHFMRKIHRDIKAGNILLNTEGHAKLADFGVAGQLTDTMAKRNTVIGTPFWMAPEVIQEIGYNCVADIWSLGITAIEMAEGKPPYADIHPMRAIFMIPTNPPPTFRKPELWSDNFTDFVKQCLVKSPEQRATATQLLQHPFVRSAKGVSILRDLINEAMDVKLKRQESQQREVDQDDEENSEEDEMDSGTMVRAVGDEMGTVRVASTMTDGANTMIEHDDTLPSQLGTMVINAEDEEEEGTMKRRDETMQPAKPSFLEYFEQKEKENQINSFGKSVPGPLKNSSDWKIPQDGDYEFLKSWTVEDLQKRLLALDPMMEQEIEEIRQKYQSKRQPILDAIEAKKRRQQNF

Variants of: B1
Conditions: with stk4_human STK4, Q13043

Variant | effect of a mutation on the interaction
C83S | decreasing interaction
C173S | increasing interaction
C52S | disrupting interaction
